US20190211098A1 (Genentech, published 2019)

Tests used:
[1] = target: T1, HSV-1 glycoprotein B, full length, expressed on transfected 293T cells (human herpes simplex virus type-1, UniProt P06437 31-904); experiment: flow cytometry, soluble PILRA-mFc 50 ug/ml on ligand-transfected 293T cells
T1 construct: Construct cloned from EF157316 (strain KOSc); also called HSV-1 gB; human herpesvirus 1 strain KOSc glycoprotein B (EF157316)

[2] = target: T2, Full length myc-DDK tagged PIANP, expressed on transfected 293T cells (human, UniProt Q8IYJ0 32-282); experiment: as above
T2 construct: Bought construct (Origene Cat. No. RC207868); also called myc-PIANP; C12orf53 (human); not shown: myc-DDK tag of the Origene construct RC207868
T2 sequence: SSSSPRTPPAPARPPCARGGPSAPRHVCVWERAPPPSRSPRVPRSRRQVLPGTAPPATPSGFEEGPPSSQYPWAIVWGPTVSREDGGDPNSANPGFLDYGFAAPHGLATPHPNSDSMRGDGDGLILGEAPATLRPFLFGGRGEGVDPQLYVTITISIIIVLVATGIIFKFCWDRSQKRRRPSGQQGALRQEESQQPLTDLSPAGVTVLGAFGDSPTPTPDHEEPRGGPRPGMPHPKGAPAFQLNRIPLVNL

NPDC1-His = target: T3, NPDC1-His (human, UniProt Q9NQX5 35-181, limits assumed); experiment: SPR, NPDC1-His binding to PILRA variant
T3 construct: not shown: His tag
T3 sequence: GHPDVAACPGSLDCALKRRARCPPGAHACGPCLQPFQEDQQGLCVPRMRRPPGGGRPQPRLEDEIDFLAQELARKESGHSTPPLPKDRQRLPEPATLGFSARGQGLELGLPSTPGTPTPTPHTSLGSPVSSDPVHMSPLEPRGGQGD

B1: PILRA G78 variant extracellular domain fused to murine IgG2a Fc (Fc fusion)
chain: QPSGSTGSGPSYLYGVTQPKHLSASMGGSVEIPFSFYYPWELATAPDVRISWRRGHFHGQSFYSTRPPSIHKDYVNRLFLNWTEGQKSGFLRISNLQKQDQSVYFCRVELDTRSSGRQQWQSIEGTKLSITQAVTTTTQRPSSMTTTWRLSSTTTTTGLRVTQGKRRSDSWHISLET
notes: Made in CHO cells, protein A/G purified; also called PILRA-mFc G78; PILRA-Fc G78; not shown: Fc region of murine IgG2a, C-terminal tag
binding result [1]: binds | binding result [2]: binds | Kd (NPDC1-His): 16.8 nM | kon (NPDC1-His): 22000 M⁻¹ s⁻¹
